Test results taken from the RNAGym collection of RNA variant scans (doi:10.1073/pnas.2313332121).

B1: TPR t1 (parent)
chain: GACCAAUCUGCCCUCAGAGCUCGAGAACAUCUUCGGAUGCAGAGGAGGCAGGCUUCGGUGGCGCGAUAGCGCCAACGUCCUCAACCUCCAAUGCAUCCCACCACAUGAUGAUGCCUGAAGAGCCUUGGUUUUUUG

Variants of: B1
Test: polymerase ribozyme fitness, log enrichment relative to wild type (log ratio); higher = more active; in vitro selection for triplet polymerase activity
Outline: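 Fitness measures genotype enrichment against wild-type enrichment on a logarithmic scale, with inverse-variance-weighted averaging of replicates. The logarithm is base 2, and genotypes were kept only with ≥10 input reads and ≥1 read per output in Illumina sequencing. The sequenced libraries came from one triplicate in vitro selection round, including frozen incubation at −7 °C, of PCR-built, transcribed mutant libraries of each subunit of a heterodimeric triplet polymerase ribozyme.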

Variant | polymerase ribozyme fitness (log ratio)
G51A U112A | -1.47
G51U G60A C124U | -4.52
G52A G69C C72U A95C | -1.66
A50U U55G C98U G127A | -5.19
A50U G63A U106A G135C | -2.47
G52U G60A C104U C115G A121C | -4.03
C53G C56U | -0.756
C53G G107A | -5.6
C53G G58C C62A C85U G113A | -2.93
G52A A90G G93U U112C A119C | -1.55
G52C C86A C114U G120U | -5.89
C53G G63C | -1.3
G51U C89A | -5.25
A50G C53G G61A U116A G117A | -3.29
A50U U54C C73A A95C | -1.37
C53A C56A A90G C97A U132C | -3.46
C53A A68G | -2.61
G52A C82U | -0.917
G51U C88U G113C | -5.71
C53U A91C U92A G122A | -4.02
C53A U106G A121U | 0.877
C53G C82A C94U U130G | -0.77
G51A C53A G61A C73U U133A | -2.11
C53A G127U | -0.16

Variant | polymerase ribozyme fitness (log ratio)
C53A C80U U106A G135U | -3.96
G51C G58A A100C C124U | -4.88
G52U G69U C79A U87C U129G | -1.06
G52C G57C C79G C86U C115U | -1.83
G52A U55A G61A C97U C101G U125G | -2.53
G51U U78G U112C C123A U130A | -3.11
C53G G110C | -4.65
G51A C89U U130A | -3.01
G51C U87A G120A | -3.27
A50U A84G | -3.04
A50U U87A | -1.09
G52A G71A U96G | -1.57
G52U G113U | -3.87
G51A A84C | -2.3
C53G G63C G93C C114A | -3.01
G52U C94U U106A A119G | -0.397
A50U C76A G77A | -1.53
G51U C85U | -4.37
A50U G60U | -1.4
C53A G71A C85A G135U | -4.02
G51A C53G G117C G127C | -7.73
A50U C72U | -1.18
A50U C72G | -1.6
G51A G57U A83G A84U A105G U130G | -6.12

Variant | polymerase ribozyme fitness (log ratio)
G51U A66G | -4.49
G51A A68U C82U C124U | -7.31
A50U C85A | -2.11
G52A C72G | -0.491
G51C C85G | -4.34
C53G C123U | 0.236
C53U A91U C123A | -1.7
G52U C73G A84U | -1.78
G52U G77U A90U A121U U130A | -0.805
A50U C114A | -3.11
C53A U55A C70U | -0.287
G51U C62G | -5.98
G51U C62A | -5.43
G51U C53G C124A U133A U134G | -1.64
C53U C56U | -0.207
C53G C80G | -3.16
C53G G69A | -3.62
C53A U112G C124A | 0.889
G51A G127A | -3.6
C53A G61C G110A A119U U133A | -4.96
G51U G60C | -2.36
C53G G117A U132A | -1.03
C53G C64U G110U | -3.95
G51A C56U A84U C99U A121U | -5.26

Variant | polymerase ribozyme fitness (log ratio)
G52C A95G G120C U125A | -0.335
G52A G61C | -4.29
C53A C70U U78C C86G | -1.12
C53A G63A U78C G110U | -3.53
C53U C86G | -0.977
G52C C72A U78C | 0.275
C53G C56A G60A A111G | -0.505
G51U G61C | -3.56
C53G G61A U106G G110C C124U | -6.24
G52A C80U | -1.94
C53A G60U | -0.129
C53A G60C | -2.24
A50U G117C | -2.96
A50G G51A C72G C88U G110U | -5.05
G52U C72U C104A G127C | -3.82
G51A C72G C79U | -3.08
G51A C62U G113A | -3.5
G52C C70A G110C | -6.64
A50G A83C C123U | -0.187
C53A G71A C124A | 0.149
C53A G127U U129A | -0.623
C53A G113C | -2.28
C53G C70U | -1.16
A50G C73U C88U C124A | 1.42

Variant | polymerase ribozyme fitness (log ratio)
G52U G77U G117U U126C | -5.18
G51U C72A U106A | -3.24
C53U A90G A95G | 0.749
C53G G63A C94A C115G G128C | -6.79
G52U G117A | -1.81
C53A G93C | -0.396
G52U G60A | -0.943
G52U G60C | -0.445
C53A A84U U125A | -1.27
C53G G107U C123G | -2.73
G51C A111U | -6.8
C53G A66C A83G A84U | -3.08
C53A C82G A84G | -0.378
C53G C114U | -2.03
A50U C101G U106A A118G C124A | 0.335
C53G C89U | -0.681
A50U C79U | -1.76
A50U G63A C124G | -0.873
C53A G61C U116C | -5.85
A50G G60A | 0.351
G52U U129G | -2.57
C53U A74G C98U | -1.16
A50U G58A C88U | -2.22
G52C C62U C72A C82U A119U | -1.34

Variant | polymerase ribozyme fitness (log ratio)
C53G G57U G61A | -0.189
G51C G61U C64A C79A G117A U133G | -6.91
C53U A121U | 0.893
C53U A90U | -0.929
G51U C82U | -1.77
G51A C86A | -2.78
G51A C86U | -3.18
C53A C56U | -0.113
G51U C53U C85A G93C | -5.05
C53G C97U A118U | -0.0977
G52C G63A C102U C104A | -3.27
A50U A111G | -0.837
G52U C56G C89U | -1.53
A50U G61U | -0.766
A50U G61A | -1.36
G52A C62U | -0.528
A50G C62A C99U | -6.11
G51A C79A G113A | -3.64
A50G C53A C72A G93C U109G | -5.37
G52A G69A G93U C123U | -3.78
G51C C79A | -4.29
A50U A111G U125A | -2.24
C53G G61C A83G C88G C104A | -4.92
G52A G120U | -0.416

Variant | polymerase ribozyme fitness (log ratio)
G52C U55C U78C C82U | -0.756
G51A C72G U96A | -3.94
G51U C94A U133G | -3.88
C53U C72U G77U C82G A111C | -1.23
A50U A91C | -3.23
C53G U87G C97U G117U | -4.2
C53A G135U | -0.659
G51A A121U | -0.44
G52U G69U G71C | -1.06
G52C G69U C97A | -2.26
C53U C62U A111U A118U G135A | -3.23
C53U C85U G127C | -2.36
G51C U129C | -3.96
C53G C64A U112G C124A | -6.11
C53U | -0.1
C53A | 0.0557
C53G | -0.355
G52C C79G | -0.316
C53G C72U | -1.04
A50U G52C A83C | -2.39
G52C C85U G117C | -5.83
A50U G60U U125G U129C | -3.19
C53G G61C | -1.1
